This note sets out measurements from patent US20200283475A1.

In assay [1] the target is human polyclonal IgG (Gammanorm) (human). The assay is described as follows: SPR; ratio of remaining capacity to reference Zvar1. On the technique in general: In SPR one partner is held on a chip, and binding of the other changes the refractive index at the surface.
The target is the same in assay [2]. The experiment in a line: SPR, ligand on chip; signal left after 96-100 CIP cycles 0.5 M NaOH.
For assay [3] the target is unchanged. The assay is described as follows: SPR; ratio to reference Zvar4.
Assay [4] has the same target. The assay is described as follows: SPR, ligand on chip; CIP cycles 0.5 M NaOH.
The target is the same in assay [5]. The experiment in a line: SPR; ratio to reference Zvar2.

Turning to Zvar(N11E,Q32E,K50R)1 (designed binder), the Capacity relative to reference in assay [1] was 1.04. The substance also registered a Capacity after 96-100 cycles in assay [2] of 53%.

As to “Zvar(N11K,H18K,D37E,A42R,N43A,L44I)1 (designed binder)”, the Capacity relative to reference in assay [1] was 1.31. In assay [2], this substance registered a Capacity after 96-100 cycles of 59%.

Regarding “Zvar(N11K,H18K,S33K,D37E,A42R,N43A,L44I,K50R,L51Y)1 (designed binder)”, in assay [1], the Capacity relative to reference came to 1.46. Moreover, in assay [2], the Capacity after 96-100 cycles was found to be 67%.

“Zvar(Q9A,N11E,A29D,Q40V,A42K,N43A,L44I)1 (designed binder)”: the Capacity relative to reference in assay [1] worked out at 1.19. The same substance displayed a Capacity after 96-100 cycles in assay [2] of 56%.

As for “Zvar(Q9A,N11E,A29E,Q40V,A42K,N43A,L44I)1 (designed binder)”, the Capacity relative to reference in assay [1] was 1.21. In assay [2], the Capacity after 96-100 cycles was 57%.

In the case of “Zvar(Q9A,N11E,A29F,Q40V,A42K,N43A,L44I)1 (designed binder)”, the Capacity relative to reference in assay [1] was 1.35. The substance also returned a Capacity after 96-100 cycles in assay [2] of 62%.

Regarding “Zvar(Q9A,N11E,A29H,Q40V,A42K,N43A,L44I)1 (designed binder)”, the Capacity relative to reference in assay [1] was 1.21. The same substance came in with a Capacity after 96-100 cycles in assay [2] of 57%.

In the case of “Zvar(Q9A,N11E,A29I,Q40V,A42K,N43A,L44I)1 (designed binder)”, the Capacity relative to reference in assay [1] turned out to be 1.23. In assay [2], this substance displayed a Capacity after 96-100 cycles of 58%.

Turning to “Zvar(Q9A,N11E,A29K,Q40V,A42K,N43A,L44I)1 (designed binder)”, in assay [1], the Capacity relative to reference worked out at 1.28. The substance also had a Capacity after 96-100 cycles in assay [2] of 59%.

Consider “Zvar(Q9A,N11E,A29L,Q40V,A42K,N43A,L44I)1 (designed binder)”, for which the Capacity relative to reference in assay [1] turned out to be 1.33. For the same substance, the Capacity after 96-100 cycles in assay [2] stood at 61%.

“Zvar(Q9A,N11E,A29M,Q40V,A42K,N43A,L44I)1 (designed binder)”: the Capacity relative to reference in assay [1] is 1.32. This substance registered a Capacity after 96-100 cycles in assay [2] of 62%.

Regarding “Zvar(Q9A,N11E,A29N,Q40V,A42K,N43A,L44I)1 (designed binder)”, the Capacity relative to reference in assay [1] came out at 1.3. Further, in assay [2], the Capacity after 96-100 cycles amounted to 61%.

As to “Zvar(Q9A,N11E,A29Q,Q40V,A42K,N43A,L44I)1 (designed binder)”, the Capacity relative to reference in assay [1] turned out to be 1.28. The substance also displayed a Capacity after 96-100 cycles in assay [2] of 60%.

Take “Zvar(Q9A,N11E,A29R,Q40V,A42K,N43A,L44I)1 (designed binder)”: the Capacity relative to reference in assay [1] was found to be 1.26. This substance also came in with a Capacity after 96-100 cycles in assay [2] of 58%.

Take “Zvar(Q9A,N11E,A29S,Q40V,A42K,N43A,L44I)1 (designed binder)”: the Capacity relative to reference in assay [1] is 1.38. For the same substance, the Capacity after 96-100 cycles in assay [2] was 66%.

Turning to “Zvar(Q9A,N11E,A29T,Q40V,A42K,N43A,L44I)1 (designed binder)”, in assay [1], the Capacity relative to reference is 1.28. In assay [2], the Capacity after 96-100 cycles stood at 60%.

For the substance “Zvar(Q9A,N11E,A29V,Q40V,A42K,N43A,L44I)1 (designed binder)”, the Capacity relative to reference in assay [1] is 1.32. In assay [2], this substance gave a Capacity after 96-100 cycles of 62%.

On to “Zvar(Q9A,N11E,A29W,Q40V,A42K,N43A,L44I)1 (designed binder)”, for which, in assay [1], the Capacity relative to reference was 1.3. In assay [2], this substance showed a Capacity after 96-100 cycles of 60%.

For “Zvar(Q9A,N11E,A29Y,Q40V,A42K,N43A,L44I)1 (designed binder)”, the Capacity relative to reference in assay [1] came to 1.27. In assay [2], this substance displayed a Capacity after 96-100 cycles of 61%.

With “Zvar(Q9A,N11E,D37E,Q40V,A42K,N43A,L44I)4 (designed binder)”, the Capacity relative to ref. 100 cycles in assay [3] worked out at 1.13. The Remaining capacity 100 cycles (%) in assay [4] was 81%.

“Zvar(Q9A,N11E,D37E,Q40V,A42R,N43A,L44I)4 (designed binder)”: the Capacity relative to ref. 100 cycles in assay [3] worked out at 1.17. The Remaining capacity 100 cycles (%) in assay [4] was 84%.

For the substance “Zvar(Q9A,N11E,N28A,Q40V,A42K,N43A,L44I)1 (designed binder)”, in assay [1], the Capacity relative to reference amounted to 1.35. In assay [2], this substance had a Capacity after 96-100 cycles of 65%.

Regarding “Zvar(Q9A,N11E,N28A,Q40V,A42K,N43A,L44I)4 (designed binder)”, in assay [3], the Capacity relative to ref. 100 cycles was determined as 1.24. Also, the Remaining capacity 100 cycles (%) in assay [4] is 84%.

As to Zvar(Q9A,N11E,N43A)4 (designed binder), in assay [3], the Capacity relative to ref. 100 cycles amounted to 1.21, the Capacity relative to ref. 200 cycles came out at 1.72 and the Capacity relative to ref. 300 cycles worked out at 2.56. In assay [4], this substance registered a Remaining capacity 100 cycles (%) of 81%, a Remaining capacity 200 cycles (%) of 62% and a Remaining capacity 300 cycles (%) of 41%.

With “Zvar(Q9A,N11E,Q40V,A42K,N43A,L44I)2 with A56, P57 and K58 in linker deleted (designed binder)”, the Capacity relative to ref. 100 cycles in assay [5] came to 1.26. The Remaining capacity 100 cycles (%) in assay [4] worked out at 68%.

In the case of “Zvar(Q9A,N11E,Q40V,A42K,N43A,L44I)2 with D2, A3 and K4 in linker deleted (designed binder)”, the Capacity relative to ref. 100 cycles in assay [5] came out at 1.27. In assay [4], this substance displayed a Remaining capacity 100 cycles (%) of 70%.

In the case of “Zvar(Q9A,N11E,Q40V,A42K,N43A,L44I,D53F)1 (designed binder)”, in assay [1], the Capacity relative to reference is 1.26. This substance returned a Capacity after 96-100 cycles in assay [2] of 58%.

For “Zvar(Q9A,N11E,Q40V,A42K,N43A,L44I,D53K)1 (designed binder)”, the Capacity relative to reference in assay [1] was determined as 1.41. This substance returned a Capacity after 96-100 cycles in assay [2] of 65%.

With “Zvar(Q9A,N11E,Q40V,A42K,N43A,L44I,D53R)1 (designed binder)”, the Capacity relative to reference in assay [1] came to 1.3. In addition, the Capacity after 96-100 cycles in assay [2] amounted to 60%.

For “Zvar(Q9A,N11E,Q40V,A42K,N43A,L44I,D53W)1 (designed binder)”, the Capacity relative to reference in assay [1] worked out at 1.35. Also, the Capacity after 96-100 cycles in assay [2] was 62%.

Turning to “Zvar(Q9A,N11E,Q40V,A42K,N43A,L44I,D53Y)1 (designed binder)”, in assay [1], the Capacity relative to reference is 1.28. Besides, in assay [2], the Capacity after 96-100 cycles was determined as 59%.

Regarding “Zvar(Q9A,N11E,Q40V,A42K,N43del,L44I)1 (designed binder)”, the Capacity relative to reference in assay [1] is 1.2. Moreover, the Capacity after 96-100 cycles in assay [2] turned out to be 55%.

As for “Zvar(Q9A,N11E,Q40V,A42del,N43A,L44I)1 (designed binder)”, the Capacity relative to reference in assay [1] turned out to be 1.24. In addition, the Capacity after 96-100 cycles in assay [2] worked out at 57%.

On to “Zvar(Q9A,N11E,Q40del,A42K,N43A,L44I)1 (designed binder)”, for which the Capacity relative to reference in assay [1] came out at 1.28. Further, the Capacity after 96-100 cycles in assay [2] stood at 59%.

With “Zvar(Q9A,N11K,H18K,D37E,A42R,N43A,L44I)1 (designed binder)”, the Capacity relative to reference in assay [1] was 1.4. Further, the Capacity after 96-100 cycles in assay [2] turned out to be 63%.

For “Zvar(Q9A,N11K,H18K,D37E,A42R,N43A,L44I,K50R)1 (designed binder)”, in assay [1], the Capacity relative to reference stood at 1.49. In assay [2], this substance gave a Capacity after 96-100 cycles of 67%.

For the substance “Zvar(Q9A,N11K,H18K,S33K,D37E,A42R,N43A,L44I,K50R,L51Y)1 (designed binder)”, in assay [1], the Capacity relative to reference is 1.28. In assay [2], this substance yielded a Capacity after 96-100 cycles of 59%.

Regarding “Zvar(Q9del,N11E,Q40V,A42K,N43A,L44I)1 (designed binder)”, the Capacity relative to reference in assay [1] came out at 1.3. The Capacity after 96-100 cycles in assay [2] came to 60%.
